Literature values in publication PMC2904412.

Target: thrombomodulin (Homo sapiens) (UniProt P07204)

Substance: thrombin (from UniProt P00734)
- Kd: < 1 nM
